Laboratory results reported in patent publication US20210023171A1 (published 2021).
No end group written: not given here.

Columns and labels:
[1] = target: T1, αvβ3 integrin on cells (U87MG glioblastoma cells; K562-αvβ3 cells) (UniProt P06756 31-1048; P05106 27-788); assay: direct equilibrium titration on U87MG cells, anti-His flow cytometry
T1 construct: whole, on cells; also called cell surface αvβ3 integrin

[2] = target: T1, αvβ3 integrin on cells (U87MG …); assay: cell-based or functional assay
[3] = target: T1, αvβ3 integrin on cells (U87MG …); assay: direct equilibrium titration on K562-αvβ3 cells, anti-His flow cytometry
[4] = target: T2, αiibβ3 integrin on K562 cells stably transfected with αiibβ3 (UniProt P08514 32-1039; P05106 27-788); assay: titration on K562-αiibβ3 cells up to 5 µM, not saturated
T2 construct: whole, on cells; also called K562-αiibβ3; K562-αiiβ3

[5] = target: T1, αvβ3 integrin on cells (U87MG …); assay: competing off ^125I-echistatin, U87MG cells
[6] = target: αvβ5 integrin (soluble / detergent-solubilized) (UniProt P06756 31-1048; P18084 24-799); assay: yeast display, flow cytometry
[7] = target: T1, αvβ3 integrin on cells (U87MG …); assay: competition with ^125I-echistatin on U87MG cells; Cy5.5-labeled peptide
[8] = target: T1, αvβ3 integrin on cells (U87MG …); assay: competition with ^125I-echistatin on U87MG cells (also express αvβ5, α5β1); unlabeled peptide
[9] = target: T3, αvβ3 integrin (soluble / detergent-solubilized) (UniProt P06756 31-1048; P05106 27-788); assay: yeast display, flow cytometry, 50 nM integrin, gross estimate
T3 construct: also called integrin αvβ3; soluble αvβ3 integrin
T3 sequence (P06756 31-1048, chain 1 of 2): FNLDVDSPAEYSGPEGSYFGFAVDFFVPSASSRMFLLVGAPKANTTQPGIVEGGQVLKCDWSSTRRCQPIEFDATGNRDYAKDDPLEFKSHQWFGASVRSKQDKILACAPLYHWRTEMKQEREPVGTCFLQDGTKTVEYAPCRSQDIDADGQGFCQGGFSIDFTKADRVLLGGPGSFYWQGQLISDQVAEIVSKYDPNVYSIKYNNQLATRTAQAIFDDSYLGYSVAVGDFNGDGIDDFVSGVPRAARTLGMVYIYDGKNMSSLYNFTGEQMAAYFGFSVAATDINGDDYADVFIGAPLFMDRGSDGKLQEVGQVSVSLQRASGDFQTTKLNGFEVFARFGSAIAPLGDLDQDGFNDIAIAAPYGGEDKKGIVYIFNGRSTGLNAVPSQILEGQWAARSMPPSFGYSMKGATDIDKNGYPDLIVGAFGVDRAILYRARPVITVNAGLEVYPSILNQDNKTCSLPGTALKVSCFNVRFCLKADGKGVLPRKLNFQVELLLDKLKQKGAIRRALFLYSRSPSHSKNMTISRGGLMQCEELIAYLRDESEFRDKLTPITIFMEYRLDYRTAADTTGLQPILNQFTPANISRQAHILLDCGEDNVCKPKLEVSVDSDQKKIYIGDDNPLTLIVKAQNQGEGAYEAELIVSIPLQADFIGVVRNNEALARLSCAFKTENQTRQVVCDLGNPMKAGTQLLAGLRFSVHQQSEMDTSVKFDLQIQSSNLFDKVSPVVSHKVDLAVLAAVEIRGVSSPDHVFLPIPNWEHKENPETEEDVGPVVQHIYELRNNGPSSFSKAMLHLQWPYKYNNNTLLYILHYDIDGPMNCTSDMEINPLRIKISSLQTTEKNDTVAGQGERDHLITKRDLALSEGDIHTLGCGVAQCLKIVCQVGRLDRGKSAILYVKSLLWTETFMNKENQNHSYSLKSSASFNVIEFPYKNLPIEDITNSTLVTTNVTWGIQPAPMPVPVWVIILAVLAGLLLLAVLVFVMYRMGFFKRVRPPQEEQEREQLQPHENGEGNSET
T3 sequence (P05106 27-788, chain 2 of 2): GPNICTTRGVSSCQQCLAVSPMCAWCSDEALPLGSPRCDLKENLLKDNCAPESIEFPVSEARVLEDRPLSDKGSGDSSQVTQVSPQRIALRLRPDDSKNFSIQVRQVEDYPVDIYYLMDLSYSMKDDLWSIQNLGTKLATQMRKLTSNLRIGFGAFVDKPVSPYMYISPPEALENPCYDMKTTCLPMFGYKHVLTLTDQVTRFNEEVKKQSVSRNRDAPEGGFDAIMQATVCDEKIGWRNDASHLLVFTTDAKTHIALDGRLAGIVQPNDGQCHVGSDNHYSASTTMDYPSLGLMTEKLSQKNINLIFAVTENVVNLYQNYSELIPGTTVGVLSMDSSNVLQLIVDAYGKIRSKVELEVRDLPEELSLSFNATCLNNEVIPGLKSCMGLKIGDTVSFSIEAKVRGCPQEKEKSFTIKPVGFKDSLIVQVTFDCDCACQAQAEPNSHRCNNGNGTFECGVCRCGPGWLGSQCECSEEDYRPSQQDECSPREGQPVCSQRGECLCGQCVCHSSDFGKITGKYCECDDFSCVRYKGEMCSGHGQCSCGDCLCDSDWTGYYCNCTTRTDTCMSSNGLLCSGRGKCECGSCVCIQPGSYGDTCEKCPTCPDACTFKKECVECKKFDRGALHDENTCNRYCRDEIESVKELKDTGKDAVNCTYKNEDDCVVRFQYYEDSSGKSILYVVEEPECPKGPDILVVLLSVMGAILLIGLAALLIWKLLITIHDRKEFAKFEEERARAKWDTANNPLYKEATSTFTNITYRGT

Sequence of αvβ5 integrin (soluble / detergent-solubilized) (P06756 31-1048, chain 1 of 2): as the sequence (P06756 31-1048, chain 1 of 2) above
Sequence of αvβ5 integrin (soluble / detergent-solubilized) (P18084 24-799, chain 2 of 2): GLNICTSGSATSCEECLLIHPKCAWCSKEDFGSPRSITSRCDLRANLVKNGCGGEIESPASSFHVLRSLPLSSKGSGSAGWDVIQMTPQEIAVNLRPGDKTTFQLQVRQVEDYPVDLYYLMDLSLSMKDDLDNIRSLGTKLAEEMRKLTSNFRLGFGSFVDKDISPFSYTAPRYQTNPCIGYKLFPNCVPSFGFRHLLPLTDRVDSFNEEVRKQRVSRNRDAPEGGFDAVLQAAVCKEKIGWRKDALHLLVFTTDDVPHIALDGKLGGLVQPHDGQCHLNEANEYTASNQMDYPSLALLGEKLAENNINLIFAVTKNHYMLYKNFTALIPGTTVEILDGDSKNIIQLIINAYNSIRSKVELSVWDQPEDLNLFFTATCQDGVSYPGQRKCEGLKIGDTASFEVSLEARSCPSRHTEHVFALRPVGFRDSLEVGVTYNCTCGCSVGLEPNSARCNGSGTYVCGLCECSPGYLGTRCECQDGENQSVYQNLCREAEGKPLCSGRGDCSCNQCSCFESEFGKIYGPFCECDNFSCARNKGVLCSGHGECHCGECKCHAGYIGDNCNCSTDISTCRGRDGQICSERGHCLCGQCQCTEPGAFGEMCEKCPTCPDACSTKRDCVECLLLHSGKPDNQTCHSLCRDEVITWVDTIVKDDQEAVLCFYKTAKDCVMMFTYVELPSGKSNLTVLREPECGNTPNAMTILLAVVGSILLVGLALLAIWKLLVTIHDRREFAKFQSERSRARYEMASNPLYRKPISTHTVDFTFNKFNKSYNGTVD
T1 sequence (P06756 31-1048, chain 1 of 2): as the sequence (P06756 31-1048, chain 1 of 2) above
T1 sequence (P05106 27-788, chain 2 of 2): as the sequence (P05106 27-788, chain 2 of 2) above

B1: recombinant engineered AgRP peptide 6C (FLAG and hexahistidine tagged) (peptide)
chain: DYKDDDDKGCVRLHESCLGQQVPCCDPAATCYCTGRGDEKLRCYCRHHHHHH
[1]
  Kd: 13 nM
[2]
  adhesion (IC50; nM) of K562-αvβ3 cells to vitronectin-coated wells: 650 nM
[3]
  Kd: 15 nM
[4]
  Kd: > 100 nM

B2: recombinant engineered AgRP peptide 7E (FLAG and hexahistidine tagged) (peptide)
chain: DYKDDDDKGCVRLHESCLGQQVPCCDPAATCYCVGRGDDNLKCYCRHHHHHH
[1]
  Kd: 1.4 nM
[2]
  adhesion (IC50; nM) of K562-αvβ3 cells to vitronectin-coated wells: 9.9 nM
[3]
  Kd: 1.6 nM
[4]
  Kd: > 100 nM

B3: recombinant engineered AgRP peptide 7J (FLAG and hexahistidine tagged) (peptide)
chain: DYKDDDDKGCVRLHESCLGQQVPCCDPAATCYCEGRGDRDMKCYCRHHHHHH
notes: also called 7J (6B); 6B
[1]
  Kd: 8.3 nM
[2]
  adhesion (IC50; nM) of K562-αvβ3 cells to vitronectin-coated wells: 200 nM
[3]
  Kd: 16 nM
[4]
  Kd: > 100 nM

## GCVRLHESCLGQQVPCCDPAATCYCESRGDVVRKCYCR (ends and bridges not checked; cysteine pairing not given here) [6F (synthesized Mini-RGD-AgRP peptide)]
[5]
  IC50: 410 nM

## GCRPLGDAGCLGQQVPCCDPAATCYCYGRGDNDLRCYCR (ends and bridges not checked; cysteine pairing not given here) [AgRP 7C loop 1 clone 1-2 (yeast-displayed)]
[6]
  binding result: no binding (tested: 50 nM)

## {Cy5.5}-GCPQGRGDWAPTSCSQDSDCRAGCVCGPNGFCG (cysteine pairing not given here) [Cy5.5-labeled Miniprotein 2.5D]
[7]
  IC50: 4.2 nM

## {Cy5.5}-GCVTGRGDSPASSCSQDSDCLAGCVCGPNGFCG (cysteine pairing not given here, also called Cy5.5-labeled FN-RGD) [Cy5.5-labeled loop-grafted FN-RGD]
[7]
  IC50: 33.9 nM

## GCVRLHESCLGQQVPCCTVTNSRCYCYGRGDNDLRCYCR [AgRP 7C loop 3 clone 3-5 (yeast-displayed)]
[6]
  binding result: no binding (tested: 50 nM)

## GCVRLHESCLGQQVPCCDPAATCYCVERGDGNRRCYCR (ends and bridges not checked; cysteine pairing not given here) [6E (synthesized Mini-RGD-AgRP peptide)]
[5]
  IC50: 130 nM

## GCVRLHESCGGSVGVECCDPAATCYCYGRGDNDLRCYCR (ends and bridges not checked; cysteine pairing not given here) [AgRP 7C loop 2 clone 2-1 (yeast-displayed)]
[6]
  binding result: no binding (tested: 50 nM)

## GCVRLHESCDPRVGVRCCDPAATCYCYGRGDNDLRCYCR (ends and bridges not checked; cysteine pairing not given here) [AgRP 7C loop 2 clone 2-2 (yeast-displayed)]
[6]
  binding result: no binding (tested: 50 nM)

## {Cy5.5}-GCTIGRGDWAPSECSQDSDCLAGCVCGPNGFCG (cysteine pairing not given here) [Cy5.5-labeled Miniprotein 1.5B]
[7]
  IC50: 6.4 nM

## GCVRLHESCADTLMAACCDPAATCYCYGRGDNDLRCYCR (ends and bridges not checked; cysteine pairing not given here) [AgRP 7C loop 2 clone 2-3 (yeast-displayed)]
[6]
  binding result: no binding (tested: 50 nM)

## QCESGPCCRNCKFLKEGTICKRARGDDMDDYCNGKTCDCPRNPHKGPAT (ligand, ends and bridges not checked; also: Cy5.5-labeled, site not given here) [Cy5.5-labeled echistatin]
[7]
  IC50: 2.6 nM

## GCVTGRGDSPASSCSQDSDCLAGCVCGPNGFCG (also called FN-RGD2; RGD-EETI #3) [Loop-grafted FN-RGD (synthetic, soluble)]
[8]
  IC50: 370 nM

## GCVRLHESCGSWGTLACCDPAATCYCYGRGDNDLRCYCR (ends and bridges not checked; cysteine pairing not given here) [AgRP 7C loop 2 clone 2-5 (yeast-displayed)]
[6]
  binding result: no binding (tested: 50 nM)

## GCRSASVGGCLGQQVPCCDPAATCYCYGRGDNDLRCYCR (ends and bridges not checked; cysteine pairing not given here) [AgRP 7C loop 1 clone 1-4 (yeast-displayed)]
[6]
  binding result: no binding (tested: 50 nM)

## GCLAGLSGPCLGQQVPCCDPAATCYCYGRGDNDLRCYCR (ends and bridges not checked; cysteine pairing not given here) [AgRP 7C loop 1 clone 1-3 (yeast-displayed)]
[6]
  binding result: no binding (tested: 50 nM)

B4: Miniprotein 2.5F (synthetic, soluble) (peptide)
chain: GCPRPRGDNPPLTCSQDSDCLAGCVCGPNGFCG
notes: also called knottin peptide 2.5F; RGD-miniprotein 2.5F
[8]
  IC50: 26 nM

## GCVRLHESCLGQQVPCCGTPKPECYCYGRGDNDLRCYCR (ends and bridges not checked; cysteine pairing not given here) [AgRP 7C loop 3 clone 3-1 (yeast-displayed)]
[6]
  binding result: no binding (tested: 50 nM)

## GCVRLHESCLGQQVPCCSRSDAHCYCYGRGDNDLRCYCR (ends and bridges not checked; cysteine pairing not given here) [AgRP 7C loop 3 clone 3-2 (yeast-displayed)]
[6]
  binding result: no binding (tested: 50 nM)

## GCVRLHESCLGQQVPCCDPAATCYCQYRGDGMKHCYCR (ends and bridges not checked; cysteine pairing not given here) [3F (synthesized Mini-RGD-AgRP peptide)]
[5]
  IC50: 880 nM

## GCVRLHESCLGQQVPCCTSKQHHCYCYGRGDNDLRCYCR [AgRP 7C loop 3 clone 3-6 (yeast-displayed)]
[6]
  binding result: no binding (tested: 50 nM)

## GCVRLHESCWGSILGHCCDPAATCYCYGRGDNDLRCYCR (ends and bridges not checked; cysteine pairing not given here) [AgRP 7C loop 2 clone 2-6 (yeast-displayed)]
[6]
  binding result: no binding (tested: 50 nM)

## GCIASGLFGCLGQQVPCCDPAATCYCYGRGDNDLRCYCR (ends and bridges not checked; cysteine pairing not given here) [AgRP 7C loop 1 clone 1-5 (yeast-displayed)]
[6]
  binding result: no binding (tested: 50 nM)

## GCDLYGSHDCLGQQVPCCDPAATCYCYGRGDNDLRCYCR (ends and bridges not checked; cysteine pairing not given here) [AgRP 7C loop 1 clone 1-6 (yeast-displayed)]
[6]
  binding result: no binding (tested: 50 nM)

## {Cy5.5}-GCPRPRGDNPPLTCSQDSDCLAGCVCGPNGFCG (cysteine pairing not given here) [Cy5.5-labeled Miniprotein 2.5F]
[7]
  IC50: 3.4 nM

## GCASGSGDPCLGQQVPCCDPAATCYCYGRGDNDLRCYCR (ends and bridges not checked; cysteine pairing not given here) [AgRP 7C loop 1 clone 1-1 (yeast-displayed)]
[6]
  binding result: no binding (tested: 50 nM)

## GCTIGRGDWAPSECKQDSDCLAGCVCGPNGFCG [1.5B (yeast-displayed EETI-based variant)]
[9]
  Kd: ~50 nM

## GCHVGRGDWAPEECKQDSDCQAGCVCGPNGFCG [2.5A (yeast-displayed EETI-based variant)]
[9]
  Kd: ~50 nM

## GCTIGRGDWAPSECSQDSDCLAGCVCGPNGFCG (also called RGD-miniprotein 1.5B) [Miniprotein 1.5B (synthetic, soluble)]
[8]
  IC50: 13 nM

## GCVRLHESCLGQQVPCCQGREQSCYCYGRGDNDLRCYCR [AgRP 7C loop 3 clone 3-4 (yeast-displayed)]
[6]
  binding result: no binding (tested: 50 nM)

## GCVRLHESCEWGRGGDCCDPAATCYCYGRGDNDLRCYCR (ends and bridges not checked; cysteine pairing not given here) [AgRP 7C loop 2 clone 2-4 (yeast-displayed)]
[6]
  binding result: no binding (tested: 50 nM)

## GCVRLHESCLGQQVPCCSGLGNRCYCYGRGDNDLRCYCR (ends and bridges not checked; cysteine pairing not given here) [AgRP 7C loop 3 clone 3-3 (yeast-displayed)]
[6]
  binding result: no binding (tested: 50 nM)
